In patent US20240158538A1 (HUMMINGBIRD BIOSCIENCE HOLDINGS PTE, published 2024):
Residue numbers refer to the chain shown, from its start. Where two headings read alike, the source gives them in different places.

What was measured:
B7H4 (ELISA coat) [1] = target: T1, B7H4 (ELISA coat) (human, UniProt Q7Z7D3 25-258, limits assumed); assay: ELISA, plate coated with B7H4
T1 construct: Species read from the list 'human VISTA, PD-1, PD-L1, ...'; also called VTCN1
T1 sequence (looked up): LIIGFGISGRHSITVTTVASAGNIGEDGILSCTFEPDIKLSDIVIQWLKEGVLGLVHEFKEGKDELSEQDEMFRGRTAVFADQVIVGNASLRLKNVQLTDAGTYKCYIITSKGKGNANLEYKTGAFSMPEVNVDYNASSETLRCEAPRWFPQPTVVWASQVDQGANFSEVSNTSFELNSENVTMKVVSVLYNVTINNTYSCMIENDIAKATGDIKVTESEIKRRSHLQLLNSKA

B7H3 (ELISA coat) [2] = target: T2, B7H3 (ELISA coat) (human, UniProt Q5ZPR3 29-461, limits assumed); assay: ELISA, plate coated with B7H3
T2 construct: Species read from the list 'human VISTA, PD-1, PD-L1, ...'; also called CD276
T2 sequence (looked up): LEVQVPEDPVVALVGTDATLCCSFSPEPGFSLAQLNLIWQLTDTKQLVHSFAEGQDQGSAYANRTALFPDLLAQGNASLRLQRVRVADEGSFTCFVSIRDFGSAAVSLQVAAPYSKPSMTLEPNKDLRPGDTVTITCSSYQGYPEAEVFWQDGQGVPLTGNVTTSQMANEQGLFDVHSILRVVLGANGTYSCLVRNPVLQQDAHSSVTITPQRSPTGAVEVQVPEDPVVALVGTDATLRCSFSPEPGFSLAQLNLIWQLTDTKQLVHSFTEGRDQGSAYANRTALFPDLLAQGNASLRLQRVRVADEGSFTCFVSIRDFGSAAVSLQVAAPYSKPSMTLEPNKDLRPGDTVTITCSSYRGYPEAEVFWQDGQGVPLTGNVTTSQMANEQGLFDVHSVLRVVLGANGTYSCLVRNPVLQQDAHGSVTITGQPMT

B7H6 (ELISA coat) [3] = target: T3, B7H6 (ELISA coat) (human, UniProt Q68D85 25-262, limits assumed); assay: ELISA, plate coated with B7H6
T3 construct: Species read from the list 'human VISTA, PD-1, PD-L1, ...'; also called NCR3LG1
T3 sequence (looked up): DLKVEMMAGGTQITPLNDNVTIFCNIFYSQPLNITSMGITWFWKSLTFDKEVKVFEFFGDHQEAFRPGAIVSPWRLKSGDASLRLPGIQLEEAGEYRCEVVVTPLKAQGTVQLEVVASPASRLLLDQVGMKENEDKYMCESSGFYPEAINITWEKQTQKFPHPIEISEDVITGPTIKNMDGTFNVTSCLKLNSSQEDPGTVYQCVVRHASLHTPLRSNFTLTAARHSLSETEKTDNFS

B7H7 (ELISA coat) [4] = target: T4, B7H7 (ELISA coat) (human, UniProt Q9UM44 23-344, limits assumed); assay: ELISA, plate coated with B7H7
T4 construct: Species read from the list 'human VISTA, PD-1, PD-L1, ...'; also called HHLA2
T4 sequence (looked up): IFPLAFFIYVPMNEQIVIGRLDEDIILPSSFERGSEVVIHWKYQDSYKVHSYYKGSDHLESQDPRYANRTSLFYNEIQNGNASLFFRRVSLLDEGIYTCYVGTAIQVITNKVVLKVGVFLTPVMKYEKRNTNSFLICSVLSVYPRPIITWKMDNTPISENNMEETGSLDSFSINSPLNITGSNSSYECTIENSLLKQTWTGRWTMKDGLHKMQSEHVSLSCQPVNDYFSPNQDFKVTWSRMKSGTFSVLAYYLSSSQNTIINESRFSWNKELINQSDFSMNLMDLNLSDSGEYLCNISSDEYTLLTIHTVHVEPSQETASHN

CTLA4 (ELISA coat) [5] = target: T5, CTLA4 (ELISA coat) (human, UniProt P16410 36-162, limits assumed); assay: ELISA, plate coated with CTLA4
T5 construct: Species read from the list 'human VISTA, PD-1, PD-L1, ...'
T5 sequence (P16410 36-162 limits assumed): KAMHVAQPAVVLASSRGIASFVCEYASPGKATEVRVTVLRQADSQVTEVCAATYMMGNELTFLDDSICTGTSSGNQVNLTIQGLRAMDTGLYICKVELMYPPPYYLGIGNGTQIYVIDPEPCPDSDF

human PD-L1 (ELISA coat) [6] = target: T6, human PD-L1 (ELISA coat) (human, UniProt Q9NZQ7 19-239); assay: ELISA, plate coated with B7H1 (PDL1)
T6 sequence (Q9NZQ7 19-239 limits assumed): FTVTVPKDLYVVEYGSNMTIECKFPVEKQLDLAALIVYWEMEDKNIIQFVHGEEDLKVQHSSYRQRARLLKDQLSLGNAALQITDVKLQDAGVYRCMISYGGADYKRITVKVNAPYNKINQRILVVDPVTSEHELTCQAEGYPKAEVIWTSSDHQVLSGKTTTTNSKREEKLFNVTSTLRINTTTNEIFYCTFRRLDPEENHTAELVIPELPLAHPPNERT

PD-1 (ELISA coat) [7] = target: T7, PD-1 (ELISA coat) (human, UniProt Q15116 25-167, limits assumed); assay: ELISA, plate coated with PD1
T7 construct: Species read from the list 'human VISTA, PD-1, PD-L1, ...'
T7 sequence (Q15116 25-167 limits assumed): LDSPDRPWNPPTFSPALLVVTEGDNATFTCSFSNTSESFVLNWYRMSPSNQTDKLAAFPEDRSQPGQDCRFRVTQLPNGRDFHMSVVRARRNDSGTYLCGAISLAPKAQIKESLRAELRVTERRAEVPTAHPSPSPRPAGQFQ

[8] = target: T8, human VISTA polypeptide (ELISA coat) (human, UniProt Q9H7M9 33-194); assay: ELISA, plate coated with B7H5 (VISTA)
T8 construct: Recombinant protein (Sino Biological) coated on ELISA plates; construct not described

CTLA4 (ELISA coat) [9] = target: T5, CTLA4 (ELISA coat); assay: ELISA, plate coated with CTLA4; remark: listed apart in the source
human PD-L1 (ELISA coat) [10] = target: T6, human PD-L1 (ELISA coat); assay: ELISA, plate coated with B7H1 (PDL1); remark: listed apart in the source
B7H4 (ELISA coat) [11] = target: T1, B7H4 (ELISA coat); assay: ELISA, plate coated with B7H4; remark: listed apart in the source
B7H3 (ELISA coat) [12] = target: T2, B7H3 (ELISA coat); assay: ELISA, plate coated with B7H3; remark: listed apart in the source
PD-1 (ELISA coat) [13] = target: T7, PD-1 (ELISA coat); assay: ELISA, plate coated with PD1; remark: listed apart in the source
B7H7 (ELISA coat) [14] = target: T4, B7H7 (ELISA coat); assay: ELISA, plate coated with B7H7; remark: listed apart in the source
B7H6 (ELISA coat) [15] = target: T3, B7H6 (ELISA coat); assay: ELISA, plate coated with B7H6; remark: listed apart in the source
B7H7 (ELISA coat) [16] = target: T4, B7H7 (ELISA coat); assay: ELISA, plate coated with B7H7; remark: listed apart in the source
human PD-L1 (ELISA coat) [17] = target: T6, human PD-L1 (ELISA coat); assay: ELISA, plate coated with B7H1 (PDL1); remark: listed apart in the source
B7H3 (ELISA coat) [18] = target: T2, B7H3 (ELISA coat); assay: ELISA, plate coated with B7H3; remark: listed apart in the source
B7H4 (ELISA coat) [19] = target: T1, B7H4 (ELISA coat); assay: ELISA, plate coated with B7H4; remark: listed apart in the source
B7H6 (ELISA coat) [20] = target: T3, B7H6 (ELISA coat); assay: ELISA, plate coated with B7H6; remark: listed apart in the source
CTLA4 (ELISA coat) [21] = target: T5, CTLA4 (ELISA coat); assay: ELISA, plate coated with CTLA4; remark: listed apart in the source
PD-1 (ELISA coat) [22] = target: T7, PD-1 (ELISA coat); assay: ELISA, plate coated with PD1; remark: listed apart in the source
human PD-L1 (ELISA coat) [23] = target: T6, human PD-L1 (ELISA coat); assay: ELISA, plate coated with B7H1 (PDL1); remark: listed apart in the source
B7H7 (ELISA coat) [24] = target: T4, B7H7 (ELISA coat); assay: ELISA, plate coated with B7H7; remark: listed apart in the source
B7H4 (ELISA coat) [25] = target: T1, B7H4 (ELISA coat); assay: ELISA, plate coated with B7H4; remark: listed apart in the source
B7H3 (ELISA coat) [26] = target: T2, B7H3 (ELISA coat); assay: ELISA, plate coated with B7H3; remark: listed apart in the source
CTLA4 (ELISA coat) [27] = target: T5, CTLA4 (ELISA coat); assay: ELISA, plate coated with CTLA4; remark: listed apart in the source
B7H6 (ELISA coat) [28] = target: T3, B7H6 (ELISA coat); assay: ELISA, plate coated with B7H6; remark: listed apart in the source
PD-1 (ELISA coat) [29] = target: T7, PD-1 (ELISA coat); assay: ELISA, plate coated with PD1; remark: listed apart in the source

B1: anti-VISTA clone V4-C28 IgG1 (antibody, V domains shown)
VH: QVQLQESGPGLVKPSDTLSLTCTVSGYSITSDYTWNWIRQTPGKGLEWIGHITYSGSVSYNPSLRSRVTISRDTSKNQFSLKLSSVTAADTATYSCARALYYPWYFDVWGTGTTVTVSS
VL: EIVLTQSPATLSLSPGERATLSCRASSSVGYIHWYQQKPGQAPRPLIYATSYRATGIPARFSGSGSGTDNTLTISSLEPEDSAVYYCQQWSSYPPITFGGGTKLEVKR
notes: Human IgG1/kappa
B1: no binding (tested: log -7.5 (about 3e-8 M)) (B7H4 (ELISA coat) [1]); no binding (tested: log -7.5 (about 3e-8 M)) (B7H3 (ELISA coat) [2]); no binding (tested: log -7.5 (about 3e-8 M)) (B7H6 (ELISA coat) [3]). B1: no binding (tested: log -7.5 (about 3e-8 M)) (B7H7 (ELISA coat) [4]); no binding (tested: log -7.5 (about 3e-8 M)) (CTLA4 (ELISA coat) [5]); no binding (tested: log -7.5 (about 3e-8 M)) (human PD-L1 (ELISA coat) [6]). The binding result (PD-1 (ELISA coat) [7]) was “no binding (tested: log -7.5 (about 3e-8 M))” and the “EC50 (read off the curve)” value [8] was ~0.02 nM.

B2: anti-VISTA clone V4-C27 IgG1 (antibody, V domains shown)
VH: B1 VH
VL: B1 VL with S51Y, Y52N
notes: Human IgG1/kappa
B2: no binding (tested: log -7.5 (about 3e-8 M)) (CTLA4 (ELISA coat) [9]); no binding (tested: log -7.5 (about 3e-8 M)) (human PD-L1 (ELISA coat) [10]); no binding (tested: log -7.5 (about 3e-8 M)) (B7H4 (ELISA coat) [11]). B2: no binding (tested: log -7.5 (about 3e-8 M)) (B7H3 (ELISA coat) [12]); no binding (tested: log -7.5 (about 3e-8 M)) (PD-1 (ELISA coat) [13]); no binding (tested: log -7.5 (about 3e-8 M)) (B7H7 (ELISA coat) [14]). B2: no binding (tested: log -7.5 (about 3e-8 M)) (B7H6 (ELISA coat) [15]).

B3: anti-VISTA clone V4-C30 IgG1 (antibody, V domains shown)
VH: B1 VH
VL: B1 VL with S51Y
notes: Human IgG1/kappa
B3: no binding (tested: log -7.5 (about 3e-8 M)) (B7H7 (ELISA coat) [16]); no binding (tested: log -7.5 (about 3e-8 M)) (human PD-L1 (ELISA coat) [17]); no binding (tested: log -7.5 (about 3e-8 M)) (B7H3 (ELISA coat) [18]). B3: no binding (tested: log -7.5 (about 3e-8 M)) (B7H4 (ELISA coat) [19]); no binding (tested: log -7.5 (about 3e-8 M)) (B7H6 (ELISA coat) [20]); no binding (tested: log -7.5 (about 3e-8 M)) (CTLA4 (ELISA coat) [21]). B3: no binding (tested: log -7.5 (about 3e-8 M)) (PD-1 (ELISA coat) [22]).

B4: anti-VISTA clone V4-C31 IgG1 (antibody, V domains shown)
VH: B1 VH
VL: B1 VL with S51Y, A54T
notes: Human IgG1/kappa
B4: no binding (tested: log -7.5 (about 3e-8 M)) (human PD-L1 (ELISA coat) [23]); no binding (tested: log -7.5 (about 3e-8 M)) (B7H7 (ELISA coat) [24]); no binding (tested: log -7.5 (about 3e-8 M)) (B7H4 (ELISA coat) [25]). B4: no binding (tested: log -7.5 (about 3e-8 M)) (B7H3 (ELISA coat) [26]); no binding (tested: log -7.5 (about 3e-8 M)) (CTLA4 (ELISA coat) [27]); no binding (tested: log -7.5 (about 3e-8 M)) (B7H6 (ELISA coat) [28]). B4: no binding (tested: log -7.5 (about 3e-8 M)) (PD-1 (ELISA coat) [29]).
